According to patent US20050239141A1:

Tests used:
[1] = target: T1, rat CD5 antigen present on rat T cells (rat) (UniProt P51882); test: flow cytometry, lymph node T cells of a rat 3 h after 0.5 mg/kg i.v.
T1 sequence (looked up): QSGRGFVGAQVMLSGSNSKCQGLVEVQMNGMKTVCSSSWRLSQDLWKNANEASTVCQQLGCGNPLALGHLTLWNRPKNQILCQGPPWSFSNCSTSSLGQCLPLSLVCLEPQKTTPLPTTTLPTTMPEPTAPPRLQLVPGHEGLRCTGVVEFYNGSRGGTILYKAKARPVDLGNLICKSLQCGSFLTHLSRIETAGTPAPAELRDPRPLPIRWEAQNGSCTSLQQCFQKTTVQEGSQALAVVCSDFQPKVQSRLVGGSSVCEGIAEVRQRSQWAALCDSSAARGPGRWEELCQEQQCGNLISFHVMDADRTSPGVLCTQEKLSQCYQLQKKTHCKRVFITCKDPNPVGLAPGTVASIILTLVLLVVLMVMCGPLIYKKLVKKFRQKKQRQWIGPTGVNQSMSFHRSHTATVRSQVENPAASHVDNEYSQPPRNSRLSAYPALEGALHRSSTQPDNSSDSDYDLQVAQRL

[2] = target: T1, rat CD5 antigen present on rat T cells (rat); test: flow cytometry, spleen T cells of a rat 3 h after 0.5 mg/kg i.v.
[3] = target: T1, rat CD5 antigen present on rat T cells (rat); test: flow cytometry, blood T cells of a rat 3 h after 0.5 mg/kg i.v.
[4] = target: T1, rat CD5 antigen present on rat T cells (rat); test: flow cytometry, spleen T cells of a rat 3 h after 0.5 mg/kg i.v. (isotype matched negative control)
[5] = target: T1, rat CD5 antigen present on rat T cells (rat); test: flow cytometry, blood T cells of a rat 3 h after 0.5 mg/kg i.v. (isotype matched negative control)
[6] = target: T1, rat CD5 antigen present on rat T cells (rat); test: flow cytometry, lymph node T cells of a rat 3 h after 0.5 mg/kg i.v. (isotype matched negative control)

OX19 MoAb (antibody)
% of CD4 cells also positive for mouse IgG1 [1]: 96.2% | % of CD8 cells also positive for mouse IgG1 [1]: 96.8% | % of CD4 cells also positive for mouse IgG1 [2]: 84.8% | % of CD8 cells also positive for mouse IgG1 [2]: 73.6% | % of CD4 cells also positive for mouse IgG1 [3]: 96.2% | % of CD8 cells also positive for mouse IgG1 [3]: 70.2%

B1: MoAb H65 (antibody, V domains shown)
VH: QIQLVQSGPELKKPGETVKISCKASGYTFTNYGMNWVKQAPGKGLRWMGWINTHTGEPTYADDFKGRFAFSLETSASTAYLQINNLKNEDTATYFCTRRGYDWYFDVWGAGTTVTVSS
VL: DIKMTQSPSSMYASLGERVTITCKASQDINSYLSWFQQKPGKSPKTLIYRANRLVDGVPSRFSGSGSGQDYSLTISSLDYEDMGIYYCQQYDESPWTFGGGTKLEIK
% of CD4 cells also positive for mouse IgG1 [4]: 14.8% | % of CD8 cells also positive for mouse IgG1 [4]: 20.6% | % of CD4 cells also positive for mouse IgG1 [5]: 6.7% | % of CD8 cells also positive for mouse IgG1 [5]: 5.7% | % of CD4 cells also positive for mouse IgG1 [6]: 4.2% | % of CD8 cells also positive for mouse IgG1 [6]: 6.5%
